Laboratory results from publication PMC5456053.
Blank lines part the entries; values can stand above or below the molecule they belong to.

Target: SecYEG-SecDF•YajC (E. coli) (UniProt P0AGA2)

% pOmpA Translocation, +YEG: in vitro translocation of pOmpA into liposomes with SecYEG-SecDF•YajC (% pOmpA Translocation): 97 | Channel Activity, μA, +YEG: ion current in Xenopus oocytes injected with SecA, liposomes, SecYEG-SecDF•YajC, pOmpA, ATP-Mg: 7 μA
Molecule: E. coli SecA (from UniProt P10408 1-901) (natural protein)

% pOmpA Translocation, +YEG: in vitro translocation of pOmpA into liposomes with SecYEG-SecDF•YajC (% pOmpA Translocation): 0
Molecule: SecA N772 (SecA 1-772) (from UniProt P10408 1-772) (domain or fragment)

% pOmpA Translocation, +YEG: in vitro translocation of pOmpA into liposomes with SecYEG-SecDF•YajC (% pOmpA Translocation): 0 | Channel Activity, μA, +YEG: ion current in Xenopus oocytes injected with the fragment, liposomes, SecYEG-SecDF•YajC, pOmpA, ATP-Mg: 5.8 μA
B1: SecA N649 (SecA 1-649) (domain or fragment)
chain: MLIKLLTKVFGSRNDRTLRRMRKVVNIINAMEPEMEKLSDEELKGKTAEFRARLEKGEVLENLIPEAFAVVREASKRVFGMRHFDVQLLGGMVLNERCIAEMRTGEGKTLTATLPAYLNALTGKGVHVVTVNDYLAQRDAENNRPLFEFLGLTVGINLPGMPAPAKREAYAADITYGTNNEYGFDYLRDNMAFSPEERVQRKLHYALVDEVDSILIDEARTPLIISGPAEDSSEMYKRVNKIIPHLIRQEKEDSETFQGEGHFSVDEKSRQVNLTERGLVLIEELLVKEGIMDEGESLYSPANIMLMHHVTAALRAHALFTRDVDYIVKDGEVIIVDEHTGRTMQGRRWSDGLHQAVEAKEGVQIQNENQTLASITFQNYFRLYEKLAGMTGTADTEAFEFSSIYKLDTVVVPTNRPMIRKDLPDLVYMTEAEKIQAIIEDIKERTAKGQPVLVGTISIEKSELVSNELTKAGIKHNVLNAKFHANEAAIVAQAGYPAAVTIATNMAGRGTDIVLGGSWQAEVAALENPTAEQIEKIKADWQVRHDAVLEAGGLHIIGTERHESRRIDNQLRGRSGRQGDAGSSRFYLSMEDALMRIFASDRVSGMMRKLGMKPGEAIEHPWVTKAIANAQRKVESRNFDIRKQLLEYD

The remaining lines, values behind:

B2: SecA N609 (SecA 1-609) (domain or fragment)
chain: MLIKLLTKVFGSRNDRTLRRMRKVVNIINAMEPEMEKLSDEELKGKTAEFRARLEKGEVLENLIPEAFAVVREASKRVFGMRHFDVQLLGGMVLNERCIAEMRTGEGKTLTATLPAYLNALTGKGVHVVTVNDYLAQRDAENNRPLFEFLGLTVGINLPGMPAPAKREAYAADITYGTNNEYGFDYLRDNMAFSPEERVQRKLHYALVDEVDSILIDEARTPLIISGPAEDSSEMYKRVNKIIPHLIRQEKEDSETFQGEGHFSVDEKSRQVNLTERGLVLIEELLVKEGIMDEGESLYSPANIMLMHHVTAALRAHALFTRDVDYIVKDGEVIIVDEHTGRTMQGRRWSDGLHQAVEAKEGVQIQNENQTLASITFQNYFRLYEKLAGMTGTADTEAFEFSSIYKLDTVVVPTNRPMIRKDLPDLVYMTEAEKIQAIIEDIKERTAKGQPVLVGTISIEKSELVSNELTKAGIKHNVLNAKFHANEAAIVAQAGYPAAVTIATNMAGRGTDIVLGGSWQAEVAALENPTAEQIEKIKADWQVRHDAVLEAGGLHIIGTERHESRRIDNQLRGRSGRQGDAGSSRFYLSMEDALMRIFASDRVSGMMRK
% pOmpA Translocation, +YEG: in vitro translocation of pOmpA into liposomes with SecYEG-SecDF•YajC (% pOmpA Translocation): 0 | Channel Activity, μA, +YEG: ion current in Xenopus oocytes injected with the fragment, liposomes, SecYEG-SecDF•YajC, pOmpA, ATP-Mg: 0 μA

B3: SecA N629* (SecA 1-629, N629D) (domain or fragment)
chain: MLIKLLTKVFGSRNDRTLRRMRKVVNIINAMEPEMEKLSDEELKGKTAEFRARLEKGEVLENLIPEAFAVVREASKRVFGMRHFDVQLLGGMVLNERCIAEMRTGEGKTLTATLPAYLNALTGKGVHVVTVNDYLAQRDAENNRPLFEFLGLTVGINLPGMPAPAKREAYAADITYGTNNEYGFDYLRDNMAFSPEERVQRKLHYALVDEVDSILIDEARTPLIISGPAEDSSEMYKRVNKIIPHLIRQEKEDSETFQGEGHFSVDEKSRQVNLTERGLVLIEELLVKEGIMDEGESLYSPANIMLMHHVTAALRAHALFTRDVDYIVKDGEVIIVDEHTGRTMQGRRWSDGLHQAVEAKEGVQIQNENQTLASITFQNYFRLYEKLAGMTGTADTEAFEFSSIYKLDTVVVPTNRPMIRKDLPDLVYMTEAEKIQAIIEDIKERTAKGQPVLVGTISIEKSELVSNELTKAGIKHNVLNAKFHANEAAIVAQAGYPAAVTIATNMAGRGTDIVLGGSWQAEVAALENPTAEQIEKIKADWQVRHDAVLEAGGLHIIGTERHESRRIDNQLRGRSGRQGDAGSSRFYLSMEDALMRIFASDRVSGMMRKLGMKPGEAIEHPWVTKAIAD
Channel Activity, μA, +YEG: ion current in Xenopus oocytes injected with the fragment, liposomes, SecYEG-SecDF•YajC, pOmpA, ATP-Mg: 0.4 μA

B4: SecA N798* (SecA 1-798, D798R) (domain or fragment)
chain: MLIKLLTKVFGSRNDRTLRRMRKVVNIINAMEPEMEKLSDEELKGKTAEFRARLEKGEVLENLIPEAFAVVREASKRVFGMRHFDVQLLGGMVLNERCIAEMRTGEGKTLTATLPAYLNALTGKGVHVVTVNDYLAQRDAENNRPLFEFLGLTVGINLPGMPAPAKREAYAADITYGTNNEYGFDYLRDNMAFSPEERVQRKLHYALVDEVDSILIDEARTPLIISGPAEDSSEMYKRVNKIIPHLIRQEKEDSETFQGEGHFSVDEKSRQVNLTERGLVLIEELLVKEGIMDEGESLYSPANIMLMHHVTAALRAHALFTRDVDYIVKDGEVIIVDEHTGRTMQGRRWSDGLHQAVEAKEGVQIQNENQTLASITFQNYFRLYEKLAGMTGTADTEAFEFSSIYKLDTVVVPTNRPMIRKDLPDLVYMTEAEKIQAIIEDIKERTAKGQPVLVGTISIEKSELVSNELTKAGIKHNVLNAKFHANEAAIVAQAGYPAAVTIATNMAGRGTDIVLGGSWQAEVAALENPTAEQIEKIKADWQVRHDAVLEAGGLHIIGTERHESRRIDNQLRGRSGRQGDAGSSRFYLSMEDALMRIFASDRVSGMMRKLGMKPGEAIEHPWVTKAIANAQRKVESRNFDIRKQLLEYDDVANDQRRAIYSQRNELLDVSDVSETINSIREDVFKATIDAYIPPQSLEEMWDIPGLQERLKNDFDLDLPIAEWLDKEPELHEETLRERILAQSIEVYQRKEEVVGAEMMRHFEKGVMLQTLDSLWKEHLAAMDYLRQGIHLRGYAQKR
% pOmpA Translocation, +YEG: in vitro translocation of pOmpA into liposomes with SecYEG-SecDF•YajC (% pOmpA Translocation): 0

B5: SecA N619 (SecA 1-619) (domain or fragment)
chain: MLIKLLTKVFGSRNDRTLRRMRKVVNIINAMEPEMEKLSDEELKGKTAEFRARLEKGEVLENLIPEAFAVVREASKRVFGMRHFDVQLLGGMVLNERCIAEMRTGEGKTLTATLPAYLNALTGKGVHVVTVNDYLAQRDAENNRPLFEFLGLTVGINLPGMPAPAKREAYAADITYGTNNEYGFDYLRDNMAFSPEERVQRKLHYALVDEVDSILIDEARTPLIISGPAEDSSEMYKRVNKIIPHLIRQEKEDSETFQGEGHFSVDEKSRQVNLTERGLVLIEELLVKEGIMDEGESLYSPANIMLMHHVTAALRAHALFTRDVDYIVKDGEVIIVDEHTGRTMQGRRWSDGLHQAVEAKEGVQIQNENQTLASITFQNYFRLYEKLAGMTGTADTEAFEFSSIYKLDTVVVPTNRPMIRKDLPDLVYMTEAEKIQAIIEDIKERTAKGQPVLVGTISIEKSELVSNELTKAGIKHNVLNAKFHANEAAIVAQAGYPAAVTIATNMAGRGTDIVLGGSWQAEVAALENPTAEQIEKIKADWQVRHDAVLEAGGLHIIGTERHESRRIDNQLRGRSGRQGDAGSSRFYLSMEDALMRIFASDRVSGMMRKLGMKPGEAIE
% pOmpA Translocation, +YEG: in vitro translocation of pOmpA into liposomes with SecYEG-SecDF•YajC (% pOmpA Translocation): 0 | Channel Activity, μA, +YEG: ion current in Xenopus oocytes injected with the fragment, liposomes, SecYEG-SecDF•YajC, pOmpA, ATP-Mg: 0 μA

B6: SecA N828 (SecA 1-828) (domain or fragment)
chain: MLIKLLTKVFGSRNDRTLRRMRKVVNIINAMEPEMEKLSDEELKGKTAEFRARLEKGEVLENLIPEAFAVVREASKRVFGMRHFDVQLLGGMVLNERCIAEMRTGEGKTLTATLPAYLNALTGKGVHVVTVNDYLAQRDAENNRPLFEFLGLTVGINLPGMPAPAKREAYAADITYGTNNEYGFDYLRDNMAFSPEERVQRKLHYALVDEVDSILIDEARTPLIISGPAEDSSEMYKRVNKIIPHLIRQEKEDSETFQGEGHFSVDEKSRQVNLTERGLVLIEELLVKEGIMDEGESLYSPANIMLMHHVTAALRAHALFTRDVDYIVKDGEVIIVDEHTGRTMQGRRWSDGLHQAVEAKEGVQIQNENQTLASITFQNYFRLYEKLAGMTGTADTEAFEFSSIYKLDTVVVPTNRPMIRKDLPDLVYMTEAEKIQAIIEDIKERTAKGQPVLVGTISIEKSELVSNELTKAGIKHNVLNAKFHANEAAIVAQAGYPAAVTIATNMAGRGTDIVLGGSWQAEVAALENPTAEQIEKIKADWQVRHDAVLEAGGLHIIGTERHESRRIDNQLRGRSGRQGDAGSSRFYLSMEDALMRIFASDRVSGMMRKLGMKPGEAIEHPWVTKAIANAQRKVESRNFDIRKQLLEYDDVANDQRRAIYSQRNELLDVSDVSETINSIREDVFKATIDAYIPPQSLEEMWDIPGLQERLKNDFDLDLPIAEWLDKEPELHEETLRERILAQSIEVYQRKEEVVGAEMMRHFEKGVMLQTLDSLWKEHLAAMDYLRQGIHLRGYAQKDPKQEYKRESFSMFAAMLESLKYEVISTLSK
% pOmpA Translocation, +YEG: in vitro translocation of pOmpA into liposomes with SecYEG-SecDF•YajC (% pOmpA Translocation): 7.6

B7: SecA N831 (SecA 1-831) (domain or fragment)
chain: MLIKLLTKVFGSRNDRTLRRMRKVVNIINAMEPEMEKLSDEELKGKTAEFRARLEKGEVLENLIPEAFAVVREASKRVFGMRHFDVQLLGGMVLNERCIAEMRTGEGKTLTATLPAYLNALTGKGVHVVTVNDYLAQRDAENNRPLFEFLGLTVGINLPGMPAPAKREAYAADITYGTNNEYGFDYLRDNMAFSPEERVQRKLHYALVDEVDSILIDEARTPLIISGPAEDSSEMYKRVNKIIPHLIRQEKEDSETFQGEGHFSVDEKSRQVNLTERGLVLIEELLVKEGIMDEGESLYSPANIMLMHHVTAALRAHALFTRDVDYIVKDGEVIIVDEHTGRTMQGRRWSDGLHQAVEAKEGVQIQNENQTLASITFQNYFRLYEKLAGMTGTADTEAFEFSSIYKLDTVVVPTNRPMIRKDLPDLVYMTEAEKIQAIIEDIKERTAKGQPVLVGTISIEKSELVSNELTKAGIKHNVLNAKFHANEAAIVAQAGYPAAVTIATNMAGRGTDIVLGGSWQAEVAALENPTAEQIEKIKADWQVRHDAVLEAGGLHIIGTERHESRRIDNQLRGRSGRQGDAGSSRFYLSMEDALMRIFASDRVSGMMRKLGMKPGEAIEHPWVTKAIANAQRKVESRNFDIRKQLLEYDDVANDQRRAIYSQRNELLDVSDVSETINSIREDVFKATIDAYIPPQSLEEMWDIPGLQERLKNDFDLDLPIAEWLDKEPELHEETLRERILAQSIEVYQRKEEVVGAEMMRHFEKGVMLQTLDSLWKEHLAAMDYLRQGIHLRGYAQKDPKQEYKRESFSMFAAMLESLKYEVISTLSKVQV
% pOmpA Translocation, +YEG: in vitro translocation of pOmpA into liposomes with SecYEG-SecDF•YajC (% pOmpA Translocation): 71.2 | Channel Activity, μA, +YEG: ion current in Xenopus oocytes injected with the fragment, liposomes, SecYEG-SecDF•YajC, pOmpA, ATP-Mg: 5.8 μA
